Patent US20070078102A1, “NF-kB oligonucleotide decoy molecules” (published 2007)

B1: decoy 207 L-Z (dsDNA)
DNA 1: AGTTGAGGACTTTCCCAGGC
DNA 2: GCCTGGGAAAGTCCTCAACT
B2: decoy 195 C-V (dsDNA)
DNA 1: TCGGGGACTTTCCCTC
DNA 2: GAGGGAAAGTCCCCGA
B3: decoy 121 A-V (dsDNA)
DNA 1: TCGGGACTTTCCTC
DNA 2: GAGGAAAGTCCCGA
B4: decoy 263 H-Z (dsDNA)
DNA 1: AGTTGAGGATTTCCAGGC
DNA 2: GCCTGGAAATCCTCAACT
B5: decoy 155 E-V (dsDNA)
DNA 1: TCGGACTTTCCTC
DNA 2: GAGGAAAGTCCGA
B6: decoy 279 E-Z A->C EVEN (dsDNA)
DNA 1: TTGCGGACTTTCCAGGC
DNA 2: GCCTGGAAAGTCCGCAA
B7: 153/154 PO/H11 (dsDNA)
DNA 1: AGTTGAGGACTTTCCAGGC
DNA 2: GCCTGGAAAGTCCTCAACT
modifications: strand 153 PO; strand 154 PS at the 11 3'-most linkages
B8: decoy 265 I-Z (dsDNA)
DNA 1: AGTTGAGGATTTCCCAGGC
DNA 2: GCCTGGGAAATCCTCAACT
B9: 153/154 H11/H11 (dsDNA)
DNA 1: AGTTGAGGACTTTCCAGGC
DNA 2: GCCTGGAAAGTCCTCAACT
modifications: PS at the 11 3'-most linkages of each strand
B10: decoy 221 C-X (dsDNA)
DNA 1: CTGGGGACTTTCCCTC
DNA 2: GAGGGAAAGTCCCCAG
B11: decoy 123 A-W (dsDNA)
DNA 1: CTCGGGACTTTCCTGT
DNA 2: ACAGGAAAGTCCCGAG
B12: decoy 239 C-W' (dsDNA)
DNA 1: CTCGGGGACTTTCCCTCA
DNA 2: TGAGGGAAAGTCCCCGAG
B13: decoy 153/154 E-Z (dsDNA)
DNA 1: AGTTGAGGACTTTCCAGGC
DNA 2: GCCTGGAAAGTCCTCAACT
B14: decoy 129 D-V (dsDNA)
DNA 1: TCGGGATTTCCTC
DNA 2: GAGGAAATCCCGA
B15: 153/154 PO/PS (dsDNA)
DNA 1: AGTTGAGGACTTTCCAGGC
DNA 2: GCCTGGAAAGTCCTCAACT
modifications: strand 153 PO; strand 154 full PS
B16: 153/154 PO (dsDNA)
DNA 1: AGTTGAGGACTTTCCAGGC
DNA 2: GCCTGGAAAGTCCTCAACT
modifications: full phosphodiester, both strands
B17: decoy 113/114 C-Z (HIV NF-kB promoter) (dsDNA)
DNA 1: AGTTGAGGGGACTTTCCCAGGC
DNA 2: GCCTGGGAAAGTCCCCTCAACT
B18: decoy 235 L-V (dsDNA)
DNA 1: TCGGACTTTCCCTC
DNA 2: GAGGGAAAGTCCGA
B19: decoy 145 A-Z (dsDNA)
DNA 1: AGTTGAGGGACTTTCCAGGC
DNA 2: GCCTGGAAAGTCCCTCAACT
B20: decoy 151 D-Z (dsDNA)
DNA 1: AGTTGAGGGATTTCCAGGC
DNA 2: GCCTGGAAATCCCTCAACT
B21: decoy 259 E-Z' (dsDNA)
DNA 1: TTGAGGACTTTCCAGGCTC
DNA 2: GAGCCTGGAAAGTCCTCAA
B22: decoy 191 A-X (dsDNA)
DNA 1: CTGGGACTTTCCTC
DNA 2: GAGGAAAGTCCCAG
B23: decoy 309 M-T (dsDNA)
DNA 1: CCTTGAAGGGATTTCCCTCC
DNA 2: GGAGGGAAATCCCTTCAAGG
B24: NF-κB p50 from nuclear extract of LPS stimulated THP-1 cells (human monocyte cell line) (other, UniProt P19838 1-433, looked up)
chain: MAEDDPYLGRPEQMFHLDPSLTHTIFNPEVFQPQMALPTDGPYLQILEQPKQRGFRFRYVCEGPSHGGLPGASSEKNKKSYPQVKICNYVGPAKVIVQLVTNGKNIHLHAHSLVGKHCEDGICTVTAGPKDMVVGFANLGILHVTKKKVFETLEARMTEACIRGYNPGLLVHPDLAYLQAEGGGDRQLGDREKELIRQAALQQTKEMDLSVVRLMFTAFLPDSTGSFTRRLEPVVSDAIYDSKAPNASNLKIVRMDRTAGCVTGGEEIYLLCDKVQKDDIQIRFYEEEENGGVWEGFGDFSPTDVHRQFAIVFKTPKYKDINITKPASVFVQLRRKSDLETSEPKPFLYYPEIKDKEEVQRKRQKLMPNFSDSFGGGSGAGAGGGGMFGSGGGGGGTGSTGPGYSFPHYGFPTYGGITFHPGTTKSNAGMKHG
B25: 153/154 H8/H10 (dsDNA)
DNA 1: AGTTGAGGACTTTCCAGGC
DNA 2: GCCTGGAAAGTCCTCAACT
modifications: strand 153: 8 3'-most linkages PS, strand 154: 10 3'-most PS
B26: 153/154 H10/H10 (dsDNA)
DNA 1: AGTTGAGGACTTTCCAGGC
DNA 2: GCCTGGAAAGTCCTCAACT
modifications: 10 3'-most linkages PS on both strands
B27: 153/154 H8/H8 (dsDNA)
DNA 1: AGTTGAGGACTTTCCAGGC
DNA 2: GCCTGGAAAGTCCTCAACT
modifications: 8 3'-most linkages PS on both strands
B28: 153/154 H5/PO (dsDNA)
DNA 1: AGTTGAGGACTTTCCAGGC
DNA 2: GCCTGGAAAGTCCTCAACT
modifications: strand 153: 5 3'-most linkages PS, strand 154 all PO
B29: 153/154 H10/H8 (dsDNA)
DNA 1: AGTTGAGGACTTTCCAGGC
DNA 2: GCCTGGAAAGTCCTCAACT
modifications: strand 153: 10 3'-most linkages PS, strand 154: 8 3'-most PS
B30: 153/154 H9/H9 (dsDNA)
DNA 1: AGTTGAGGACTTTCCAGGC
DNA 2: GCCTGGAAAGTCCTCAACT
modifications: 9 3'-most linkages PS on both strands
B31: 153/154 H11/PO (dsDNA)
DNA 1: AGTTGAGGACTTTCCAGGC
DNA 2: GCCTGGAAAGTCCTCAACT
modifications: strand 153: 11 3'-most linkages PS, strand 154 all PO

biological target: T1, NF-kB p50/p50 homodimer (NFKB1) (Homo sapiens, UniProt P19838 P19838:1-433); experiment: EMSA; competition vs 32P 113/114 probe; conditions: protein: extract; tags: none; nuclear extract of LPS-stimulated THP-1 cells; chain copies: 2 (stated homodimer)
Description: (§1) The EMSA assay was employed to characterize oligonucleotide decoys for the NF-κB transcription factor. […] Using the above modified oligonucleotides to compete for binding for the above-mentioned NF-κB family members, it was possible to compare the binding affinity of these oligonucleotides against the high affinity radiolabeled probe and each other. This assay has also enabled the design of a decoy which selectively binds particular members of the NF-κB family. By using increasing concentrations of various oligonucleotides, it was observed that, by deleting or changing targeted residues in the binding site, it was possible to specifically decrease the binding of the decoy molecule to p50/p50 homodimers, while retaining the affinity for p65/p50 and cRel/p50 heterodimers.
(§2) The NF-κB gel shift assays (EMSA) were performed as follows. A double-stranded oligonucleotide containing a consensus NF-κB binding site (5′ […] 3′) (SEQ ID NO: 78) was end-labeled with γ³²P-ATP using T4 Polynucleotide Kinase (Promega). Alternatively, a double-stranded ODN containing a consensus NF-κB binding site from the IL-6 promoter (5′ […] 3′) (SEQ ID NO: 94) was end-labeled with γ³²P-ATP using T4 Polynucleotide Kinase (Promega). One microgram of a nuclear extract prepared from LPS stimulated THP-1 cells (human monocyte cell line) was incubated with 35 fmol of radiolabeled probe in the presence or absence of competing unlabeled NF-κB double-stranded oligonucleotides (dsODN) or scrambled dsODN. The incubations were carried out at room temperature for 30 minutes in a 20 μl reaction volume composed of 10 mM Tris-HCl pH 8, 100 mM KCL, 5 mM MgCl2, 2 mM DTT, 10% Glycerol, 0.1% NP-40, 0.025% BSA and 1 μg Poly-dIdC. The reactions were loaded onto a 6% polyacrylamide gel, subjected to electrophoresis and dried. The dried gels were imaged and quantitated using a Typhoon 8600 PhosphorImager (Amersham) and ImageQuant software.

Row | Binder | IC50 [fold molar excess]
1 | B1 | 45
2 | B2 | 9
3 | B3 | 34
4 | B4 | 82
5 | B5 | 97
6 | B6 | 52
7 | B7 | 40
8 | B8 | 84
9 | B9 | 27
10 | B10 | 25
11 | B11 | 10
12 | B12 | 9
13 | B13 | 96
14 | B14 | 37.5
15 | B15 | 5
16 | B16 | 92
17 | B17 | 5
18 | B18 | 62.5
19 | B19 | 8
20 | B20 | 69
21 | B21 | 85
22 | B22 | 22.5
23 | B23 | 50

biological target: T2, NF-kB p65/p50 heterodimer (RelA/NFKB1) (Homo sapiens, UniProt Q04206;P19838 Q04206:1-551,P19838:1-433); experiment: EMSA; competition vs 32P 113/114 probe; conditions: protein: extract; tags: none; nuclear extract of LPS-stimulated THP-1 cells
Description: as §1, §2
Target sequence in this assay (Q04206 whole entry, chain 1 of 2, one chain of several): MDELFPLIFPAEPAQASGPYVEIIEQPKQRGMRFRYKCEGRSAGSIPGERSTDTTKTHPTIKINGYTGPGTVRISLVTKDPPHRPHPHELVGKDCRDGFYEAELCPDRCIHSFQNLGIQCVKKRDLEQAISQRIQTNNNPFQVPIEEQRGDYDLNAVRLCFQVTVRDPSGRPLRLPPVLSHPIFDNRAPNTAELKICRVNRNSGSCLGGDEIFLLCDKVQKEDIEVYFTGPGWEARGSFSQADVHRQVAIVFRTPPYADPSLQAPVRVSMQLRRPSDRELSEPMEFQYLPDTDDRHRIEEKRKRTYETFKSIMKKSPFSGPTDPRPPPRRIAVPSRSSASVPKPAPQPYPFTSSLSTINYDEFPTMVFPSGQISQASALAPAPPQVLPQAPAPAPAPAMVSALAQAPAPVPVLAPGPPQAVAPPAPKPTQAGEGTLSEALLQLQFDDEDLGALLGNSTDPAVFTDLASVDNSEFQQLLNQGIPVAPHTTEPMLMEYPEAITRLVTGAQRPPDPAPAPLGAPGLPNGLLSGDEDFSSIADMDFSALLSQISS

Row | Binder | IC50 [fold molar excess]
24 | B1 | 20
25 | B2 | 8.5
26 | B3 | 25
27 | B4 | 73
28 | B5 | 81
29 | B6 | 48
30 | B7 | 7.5
31 | B8 | 54
32 | B9 | 24
33 | B10 | 25
34 | B11 | 8
35 | B12 | 9
36 | B13 | 62.4
37 | B14 | 37.5
38 | B15 | 5
39 | B16 | 58
40 | B18 | 37
41 | B19 | 8
42 | B20 | 36
43 | B21 | 87
44 | B22 | 19
45 | B23 | 45

biological target: T2, NF-kB p65/p50 heterodimer (RelA/NFKB1); experiment: EMSA; competition vs 32P 113/114 probe, THP-1 nuclear extract, RT; conditions: protein: extract; tags: none; nuclear extract of LPS-stimulated THP-1 cells
Description: as §1
The NF-κB gel shift assays (EMSA) were performed as follows. A double-stranded oligonucleotide containing a consensus NF-κB binding site (5′ […] 3′) (SEQ ID NO: 78) was end-labeled with γ³²P-ATP using T4 Polynucleotide Kinase (Promega). Alternatively, a double-stranded ODN containing a consensus NF-κB binding site from the IL-6 promoter (5′ […] 3′) (SEQ ID NO: 94) was end-labeled with γ³²P-ATP using T4 Polynucleotide Kinase (Promega). […] The dried gels were imaged and quantitated using a Typhoon 8600 PhosphorImager (Amersham) and ImageQuant software.
Target sequence in this assay (Q04206 whole entry, one chain of several): as the sequence (Q04206 whole entry, chain 1 of 2, one chain of several) above

Row | Binder | IC50 [fold molar excess]
46 | B17 | 5

biological target: T3, NF-κB p65 from nuclear extract of LPS stimulated THP-1 cells (human monocyte cell line) (human, UniProt Q04206 1-551); experiment: EMSA with antibody supershift, THP-1 nuclear extract; heterodimer on DNA probe; conditions: not given
T3 construct: also called RelA
Description: as §2, with “software. […]” for “software.”

T3 sequence (Q04206 whole entry): as the sequence (Q04206 whole entry, chain 1 of 2, one chain of several) above

Row | Binder | binding result
47 | B24 | binds

biological target: T1, NF-kB p50/p50 homodimer (NFKB1); experiment: competition; EMSA competition vs HIV NF-kB probe 113/114; conditions: protein: extract; tags: endogenous, nuclear extract of LPS-stimulated THP-1 cells; chain copies: 2 (stated)
Description: as §1, §2

Row | Binder | IC50 [fold molar excess]
48 | B25 | 39
49 | B26 | 42
50 | B27 | 53
51 | B28 | 83
52 | B29 | 21
53 | B30 | 30
54 | B31 | 33
